A short description of series [1]: anti-HA immunofluorescence, MDA-MB-231 and BT-549. The settings on record: glycan lost; control: SGK196-WT.
The nature of series [2]: protein stability in MDA-MB-231 and BT-549 (Fig. S2C). The settings on record: glycan lost; control: SGK196-WT.
Series [3] can be described thus: Transwell migration, MDA-MB-231 and BT-549 rescue lines. The following applies: glycan lost; control: SGK196-WT re-expressed in shSGK196 cells.
Series [4] is described as follows: Matrigel Transwell invasion, MDA-MB-231 and BT-549 rescue lines. The following applies: glycan lost; control: SGK196-WT re-expressed in shSGK196 cells.

B1: SGK196: SGK196-4NQ (protein)
parent chain: MEKQPQNSRRGLAPREVPPAVGLLLIMALMNTLLYLCLDHFFIAPRQSTVDPTHCPYGHFRIGQMKNCSPWLSCEELRTEVRQLKRVGEGAVKRVFLSEWKEHKVALSQLTSLEMKDDFLHGLQMLKSLQGTHVVTLLGYCEDDNTMLTEYHPLGSLSNLEETLNLSKYQNVNTWQHRLELAMDYVSIINYLHHSPVGTRVMCDSNDLPKTLSQYLLTSNFSILANDLDALPLVNHSSGMLVKCGHRELHGDFVAPEQLWPYGEDVPFHDDLMPSYDEKIDIWKIPDISSFLLGHIEGSDMVRFHLFDIHKACKSQTPSERPTAQDVLETYQKVLDTLRDAMMSQAREML
On to B1, for which the localisation_or_trafficking entry in series [1] was “no change”. For the same protein, in series [2], the degradation_or_half_life entry is listed as “no change”. Besides, the “other: suppression of cell migration” value in series [3] is “decreases”. Moreover, the “other: suppression of cell invasion” value in series [4] is “decreases”.

Values taken from paper PMC6949223.
